# Data: US20050123936A1, “Method, composition, and kit to design, evaluate, and/or test compounds that modulate regulatory factor binding to nucleic acids” (priority 2003, published 2005)
# Entries after “also recorded” stand apart in the source; their conditions may differ. Ends that are not written are not given here.
# B1: Compound 2: hairpin polyamide 1 conjugated to Ac-Phe-Tyr-Pro-Trp-Met-Lys-Gly- (peptide)
# peptide: Ac-FYPWMKG
# modifications: not fully specified (C-terminus); printed as Ac-Phe-Tyr-Pro-Trp-Met-Lys-Gly-; also: C-terminal Gly amide-bonded to propylamine side chain of polyamide 1
# notes: Peptide-polyamide conjugate; The peptide carries the Hox YPWM motif; also called conjugate 2; polyamide 2
# B2: Compound 3: hairpin polyamide 1 conjugated to Ac-Phe-Tyr-Pro-Ala-Ala-Lys-Gly- (peptide)
# peptide: Ac-FYPAAKG
# modifications: not fully specified (C-terminus); printed as Ac-Phe-Tyr-Pro-Ala-Ala-Lys-Gly-; also: C-terminal Gly amide-bonded to propylamine side chain of polyamide 1
# notes: Non-functional (Trp-Met to Ala-Ala) control conjugate; also called conjugate 3; polyamide 3
# Legend:
# [1] = target: T1, Extradenticle (Exd), homeodomain plus extended fourth helix (Drosophila) (UniProt P40427); experiment: EMSA; details: apparent, with polyamide-FYPWM conjugate
# T1 sequence: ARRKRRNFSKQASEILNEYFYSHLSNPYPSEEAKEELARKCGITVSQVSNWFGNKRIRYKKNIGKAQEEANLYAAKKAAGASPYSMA
# [2] = test system: TGGCCA mismatch site on 250-bp EcoRI/PvuII restriction fragment from plasmid pDEH9; experiment: Quantitative DNase I footprint titration, mismatch site TGGCCA; format: binding
# Experimental: (§1) Quantitative DNaseI footprinting can be used to determine the equilibrium association constants for binding to match and mismatch sites. Footprinting experiments are generally performed on 3′- and/or 5′-^32P end restriction fragments derived from plasmids. 3′-shifted cleavage patterns are consistent with location of the polyamide in the minor groove. Typical reaction conditions are: 10 mM Tris-HCl, 10 mM KCl, 10 mM MgCl2, 5 mM CaCl2, pH 7.0, and 22° C. See Brenowitz et al. (1986). Methods Enzymol. 130:132-181; Fox & Waring (1984) Nucleic Acids Res. 12:9271-9285; and Brenowitz et al. (1986) Proc. Natl. Acad. Sci. U.S.A. 83: 8462-8466.
# (§2) DNase I Footprinting: Dissociation constants for the DNA binding of compounds 1, 2 and 3 were obtained following published protocols. All reactions were carried out in 400 μL total volume employing 20 kcpm of a 3′-radiolabelled 250-bp restriction fragment from the plasmid pDEH9 (FIG. 1a) (SEQ. ID. NO: 4). No carrier DNA was used in the equilibration, and the solutions were allowed to equilibrate for 12 h at 22° C. in TKMC buffer (10 mM TRIS, 10 mM KCl, […], 5 mM CaCl2 pH 7.0) prior to the DNase I digestion. Reaction products (8 kcpm) were resolved on denaturing 8% polyacrylamide sequencing gels run at 55 W.
# (§3) FIGS. 1b, 1c, and 1d are quantitative DNAse I footprint titration experiments for compounds 1, 2 and 3 on the 3′^−32 P-labeled 250-bp EcoRI/PvuII restriction fragment from the plasmid pDEH9. Lane 1: Intact DNA. Lane 2: A-reaction. Lane 3: G-reaction. Lane 4: DNAse 1 standard.
# (§4) The DNA-binding properties of the compounds 1-3 were investigated by quantitative DNase 1 footprinting assays. The equilibrium binding constants of each of the compounds for a matched versus three single base pair mismatch sites is compiled in Table 1. The lower strand sequence is shown in the header. Mismatched base pairs are underlined. The residue under the YPWM peptide is in bold. Relative specificities are given in square brackets.
# [3] = test system: AGCTCA mismatch site on 250-bp EcoRI/PvuII restriction fragment from plasmid pDEH9; experiment: Quantitative DNase I footprint titration, mismatch site AGCTCA; format: binding
# Experimental: as §1, §2, §3, §4
# [4] = test system: TGGGCA mismatch site on 250-bp EcoRI/PvuII restriction fragment from plasmid pDEH9; experiment: Quantitative DNase I footprint titration, mismatch site TGGGCA; format: binding
# Experimental: as §1, §2, §3, §4
# [5] = target: TGGTCA matched site on 250-bp EcoRI/PvuII restriction fragment from plasmid pDEH9; experiment: Quantitative DNase I footprint titration, matched site; format: binding; details: 12 h at 22° C., TKMC buffer pH 7.0, read-out: Equilibrium Dissociation Constants Kd, TGGTCA
# Experimental: as §1
# DNase I Footprinting: Dissociation constants for the DNA binding of compounds 1, 2 and 3 were obtained following published protocols. All reactions were carried out in 400 μL total volume employing 20 kcpm of a 3′-radiolabelled 250-bp restriction fragment from the plasmid pDEH9 (FIG. 1a) (SEQ. ID. NO: 4). […]
# FIGS. 1b, 1c, and 1d are quantitative DNAse I footprint titration experiments for compounds 1, 2 and 3 on the 3′^−32 P-labeled 250-bp EcoRI/PvuII restriction fragment from the plasmid pDEH9. […]
# The DNA-binding properties of the compounds 1-3 were investigated by quantitative DNase 1 footprinting assays. […]
# [6] = target: T2, extradenticle (Exd) protein (residues 238-324) (Drosophila melanogaster, UniProt P40427); experiment: EMSA: recruitment of Exd to its cognate DNA site by polyamides 1-3; format: binding; details: saturating 50 nM compound; Exd 0-100 nM; listed as compound 3
# T2 construct: comprising the homeodomain and the extended fourth helix (residues 238-324); made in house
# T2 sequence (P40427 238-324): T1 sequence
# Excerpt: Protein expression: Drosophila extradenticle (Exd) protein comprising the homeodomain and the extended fourth helix (residues 238-324), as well as ultrabithorax (Ubx) protein homeodomain (residues 233-313 of the Ubx isoform IVa) were expressed and purified after Passner & Aggarwal. The purified proteins Exd and Ubx were used for EMSA studies as described below.
# For the templates, the DNA oligonucleotides depicted in FIGS. 2a, 2b, 2c, and 2d were used, SEQ. ID NOS: 5, 6, 7, and 8, respectively. The DNA upper strand was annealed with the respective matching lower strand and both strands were 5′-labeled with γ-^32P-ATP and polynucleotide kinase, using standard procedures.
# Gel-shift experiments: The master mix contained 50% BSA/50% glycerol, reaction buffer (150 mM potassium glutamate, 50 mM HEPES pH 7.0, 1 mM DTT, and 5′-end labeled DNA (^32P) The final concentrations in the samples were 100 ng/μL BSA and 10% glycerol. Polyamides were kept in subdued lighting whenever possible. Upon addition of the polyamide to 1 pM DNA, the samples were incubated at 25 °C. for 30 minutes in a 20 μL reaction. Next, Exd was added to the samples and incubated for 1 hour at 4° C. A 9% acrylamide/3% glycerol gel was pre-run for 15 min prior to loading. In each lane 15 μL of a 20 μL reaction were loaded while the gel was running to prevent the samples from being diluted. The gels were run at 4° C./185 V. Gels were dried, exposed to a phosphorimager screen, and visualized using a Molecular Dynamics phosphorimager.
# FIGS. 3a and 3b: EMSA studies with polyamides 1-3, Exd and Ubx. In FIG. 3a, each polyamide binds and decreases the mobility of free DNA (lanes 2-18). […] In lanes 2-6,8-12, 14-18, Exd was added in following concentrations: 0, 3, 10, 30, 100 nM. Lanes 19 and 20 contained DNA bearing the Exd-Ubx binding site that was used in X-ray crystal structure determination (see methods above for sequence). In the reaction shown in lane 20, 275 nM Ubx and 30 nM Exd were incubated with DNA. […]
# Exd = target: T3, Exd (Drosophila melanogaster, UniProt P40427); experiment: Example 7 EMSA: recruitment of Exd by linker compounds; format: binding; details: for ability to recruit Exd: 4° C.; for positioning of the test compound with respect to its hydrophobic docking site on the surface of Exd: short linkers (<4 Å when fully extended)
# T3 construct: comprising the homeodomain and the extended fourth helix (residues 238-324); made in house
# T3 sequence (P40427 238-324): T1 sequence
# Experimental: The assays were performed with 50 nM of the conjugate pre-incubated with target DNA (thus to bind the anchor moiety to the target nucleic acid) followed by the addition and incubation with Exd.
# To determine the effects of longer linker on binding, the ability of compounds using linkers 1, 2 and 4 to recruit Exd at three different temperatures was investigated.
# [7] = target: T4, Drosophila extradenticle (Exd) protein comprising the homeodomain and the extended fourth helix (residues … (Drosophila, UniProt P40427 238-324)); experiment: EMSA, conjugate pre-incubated with target DNA, then Exd
# T4 sequence (looked up): T1 sequence
# [8] = target: T4, Drosophila extradenticle (Exd) protein …; experiment: EMSA, recruitment of Exd to its cognate DNA site by DNA-bound compound 2 compared with Ubx
# Experimental: (§5) Upon addition of the polyamide to 1 pM DNA, the samples were incubated at 25 °C. for 30 minutes in a 20 μL reaction. […] A 9% acrylamide/3% glycerol gel was pre-run for 15 min prior to loading. In each lane 15 μL of a 20 μL reaction were loaded while the gel was running to prevent the samples from being diluted. The gels were run at 4° C./185 V. Gels were dried, exposed to a phosphorimager screen, and visualized using a Molecular Dynamics phosphorimager.
# (§6) A 47-base-pair duplex DNA with one cognate site was incubated with saturating concentrations (50 nM) of each compound.
# [9] = target: T4, Drosophila extradenticle (Exd) protein …; experiment: EMSA, Exd on DNA with and without compound 2
# Experimental: (§7) The gels were run at 4° C./185 V. Gels were dried, exposed to a phosphorimager screen, and visualized using a Molecular Dynamics phosphorimager.
# as §6
# [10] = target: T4, Drosophila extradenticle (Exd) protein …; experiment: EMSA, Exd titrated on the DNA/compound 2 binary complex (ternary complex), 4 °C; Exd (residues 238-324) on the DNA/compound 2 complex, EMSA
# Experimental: as §7, §6
# [11] = target: T4, Drosophila extradenticle (Exd) protein …; experiment: EMSA, compared with Exd on the Ubx-DNA complex
# Experimental: as §5, §6
# [12] = target: T4, Drosophila extradenticle (Exd) protein …; experiment: EMSA (gel shift), 32P-labelled duplex DNA pre-bound with 50 nM compound 3, Exd titrated, 4 °C
# Experimental: as §5, §6
# [13] = relative to matched site TGGTCA
molecule,measurement,setting,value
50 bp duplex with single optimal polyamide site and adjacent Exd site (Example 7),Kd,"[1]; linker 1 (PEG), 4 C, much reduced at higher temperature",0.6 nM
same,Kd,"[1]; linker 4, 4 C, less than 5-fold decrease at 37 C",0.08 nM
Cmpd 3 (FYPAAKG),"Relative specificity (square brackets), TGGCCA",[2]; [13],14
same,Kd,"[2]; single base pair mismatch site, 22° C., TKMC buffer, read-out: Equilibrium Dissociation Constants Kd, TGGCCA",12 ± 5 nM
same,"Relative specificity (square brackets), AGCTCA",[3]; [13],16
same,Kd,"[3]; single base pair mismatch site, 22° C., TKMC buffer, read-out: Equilibrium Dissociation Constants Kd, AGCTCA",14 ± 5 nM
same,"Relative specificity (square brackets), TGGGCA",[4]; [13],116
same,Kd,"[4]; single base pair mismatch site, 22° C., TKMC buffer, read-out: Equilibrium Dissociation Constants Kd, TGGGCA",≥ 0.1 nM
same,Kd,[5],0.86 ± 0.32 nM
same,ability to recruit Exd to its cognate DNA site (Exd binding),[6],No binding was observed; also recorded: Neither compound 3 nor 1 showed any ability to recruit Exd
same,ability to stabilize Exd binding to the adjacent cognate DNA site (TGAT),"Exd; 50 nM conjugate pre-incubated with target DNA, data not shown","Neither the parent polyamide lacking the YPWM hook, nor the polyamide bearing an altered hook (FYPAAK) (SEQ. ID. NO: 14) was able to stabilize Exd binding"
"Linker 1: Example 7 polyamide-FYPWM conjugate with linker 1, defined 28-atom polyethylene glycol linker, ~33 Å (FYPWMK; also: conjugated to polyamide via linker 1)",ability to recruit Exd,Exd,recruit Exd effectively
same,binding affinity (Exd recruitment),"Exd; higher temperatures (23° C., 37° C.)",dramatically reduced binding affinity
"Linker 2: Example 7 polyamide-FYPWM conjugate with linker 2, 10-atom linker, ~11 Å (FYPWMK; also: conjugated to polyamide via linker 2)",ability to recruit Exd,Exd,recruit Exd effectively
"Linker 4: Example 7 polyamide-FYPWM conjugate with linker 4, 7-atom linker, ~7 Å (FYPWMK; also: conjugated to polyamide via linker 4)",ability to recruit Exd,Exd,recruit Exd effectively
"Linker 6: Example 7 polyamide-FYPWM conjugate with linker 6, no lysine residue (not fully specified (C-terminus); also: joined via linker 7 (no lysine) to hairpin polyamide)",ability to recruit Exd in comparison to the compound using linker 5,Exd; absence of the lysine residue,did not appreciably alter
"Linker 7: Example 7 polyamide-FYPWM conjugate with linker 7, no lysine residue (also: conjugated to polyamide via linker 7)",positioning of the test compound with respect to its hydrophobic docking site on the surface of Exd,Exd,do not optimally position the test compound
"Linker 8: Example 7 polyamide-FYPWM conjugate with linker 8, lysine linker, ~2.5 Å (FYPWMK; also: conjugated to polyamide via linker 8)",positioning of the test compound with respect to its hydrophobic docking site on the surface of Exd,Exd,do not optimally position the test compound
"FYPAAK (also: conjugated to hairpin polyamide, linker not given here) [polyamide bearing an altered hook (FYPAAK)]",binding result,[7],no binding (tested: 50 nM conjugate)
B1,"fold lower concentration required to recruit Exd, against its natural Hox partner (Ubx)",[8],20 fold
same,fold improvement of the affinity of Exd for its cognate site against DNA alone,[9],≥ 200 fold
same,Kd,[10],4.4 nM
same,fold of Kd of Exd against that for the DNA-Ubx complex,[11],2 fold
B2,binding result,[12],no binding (tested: 100 nM)
